Sequences and labels used below:
B1: H2214 Fab, His tag removed (competitor in BLI) (Fab, V domains shown)
VH: EVQLLESGGGLVQPGGSLRLSCAASGFTFNHYAMTWVRQAPGKGLEWVASSSGSGRSTYYTDSVKGRFSVSRDNSKNTLYLQMNSLRAEDTAVYYCAKSSNYYGSGSYSPDDYYHMDVWGQGTTVTVSG
VL: EIVMTQSPDTLSVSPGERATLSCRASESISSNLAWYQQKPGQVPRLLIYGASTRATGVPARFTGSGSGTEFTLTISSLQSEDFAVYYCQQYNNRLPYTFGQGTKLEIK
B2: D2 H1-1/H3-1 Fab, His-tagged (binding studies) (Fab, V domains shown)
VH: QVQLVQSGGGLVRPGGSLRLSCAASGFTFSSAWMTWVRQAPGKGLEWVANIKEDGSEKYYVDSVKGRFSISRDNAKNSLYLQISSLRAEDTAVYYCARRFVERLWGQSKPYDAVDIWGQGTMVTVSG
VL: DIQMTQSPSSLSASVGDRVTITCRASQSISNYLNWYQQKPGKAPKLLIYVASNLQSGVPSRFSGSGSGTDFALTISSLQPEDFASYYCQQSYSPVTTFGGGTKVEIK
notes: not shown: His6, C-terminal, kept
B3: D1 H1-17/H3-14 Fab, His-tagged (binding studies) (Fab, V domains shown)
VH: QVQLQESGPGLVKPSESLSLTCSVSGGSVSSNLHYWSWIRQLPGKGLEWIGYISYTGSTKYNPSLNGRVTLSIDASKNQFSLELSSVTAADTAVYYCARDFFEKLIADDLNAFDIWGQGTMVTVSG
VL: DIRVTQSPSSLSASVGDRVTITCRASQSISRSLNWYQQRPGKAPKFLIYAASNLQSGVPSRFSGGGSGTDFTLTISSLQPEDFATYYCQETYSRTFGQGTKADIK
notes: as for B2

The target in this assay is T1, HA head domain of A/Texas/50/2012(H3N2), monomeric (Influenza A virus A/Texas/50/2012(H3N2), strain).
T1 construct: also called monomeric HA heads
The experiment in a line: BLI. The following applies: both partners purified.
Regarding B1, the binding result is reported as “binds”.
With B2 the entry was “binds”.
With B3 the entry was “binds”.

Source of the values: publication PMC8262862, “A Prevalent Focused Human Antibody Response to the Influenza Virus Hemagglutinin Head Interface” (mBio, 2021).
